Target: Streptolysin O (SLO), wild type, full length (Streptococcus pyogenes) (UniProt P0DF96)
Test: ELISA

UniProt P0DF96, sequence (P0DF96 34-571): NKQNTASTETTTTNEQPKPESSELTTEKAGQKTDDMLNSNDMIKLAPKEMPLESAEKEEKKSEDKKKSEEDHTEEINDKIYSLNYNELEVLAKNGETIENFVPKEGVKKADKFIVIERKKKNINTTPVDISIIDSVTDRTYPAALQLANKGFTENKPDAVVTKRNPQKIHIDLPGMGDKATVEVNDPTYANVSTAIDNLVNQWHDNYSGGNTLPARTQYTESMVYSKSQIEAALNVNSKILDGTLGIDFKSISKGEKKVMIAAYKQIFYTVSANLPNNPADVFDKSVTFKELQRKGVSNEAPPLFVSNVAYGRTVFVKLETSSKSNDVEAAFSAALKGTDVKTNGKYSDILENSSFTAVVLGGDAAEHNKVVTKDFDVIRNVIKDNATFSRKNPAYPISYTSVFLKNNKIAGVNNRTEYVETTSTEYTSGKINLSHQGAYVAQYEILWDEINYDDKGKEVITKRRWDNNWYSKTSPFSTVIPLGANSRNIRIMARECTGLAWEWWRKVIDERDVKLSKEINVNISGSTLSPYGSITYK

Substance: murine neutralizing monoclonal antibody (nAb) against Streptolysin O, Abcam AB23501
- Kd: 1.12 nM
